Source: patent US20230331827A1, “POTASSIUM CHANNEL INHIBITORS” (priority 2017, published 2023)
Residue numbers refer to the chain shown, from its start. Read-outs that look alike come from different tables or passages of the source.

How the values were obtained:
Format in all cases: cell-based
huASIC1a = target: T1, huASIC1a (Homo sapiens, UniProt P78348); experiment: QPatch electrophysiology, HEK293 cells stably expressing huASIC1a; settings: ASIC1a current at pH 6.0 after 15-20 minutes KnotBody pre-incubation, 2.3-6.6 µM
T1 construct: host or cells: HEK293
T1 sequence (P78348 1-528): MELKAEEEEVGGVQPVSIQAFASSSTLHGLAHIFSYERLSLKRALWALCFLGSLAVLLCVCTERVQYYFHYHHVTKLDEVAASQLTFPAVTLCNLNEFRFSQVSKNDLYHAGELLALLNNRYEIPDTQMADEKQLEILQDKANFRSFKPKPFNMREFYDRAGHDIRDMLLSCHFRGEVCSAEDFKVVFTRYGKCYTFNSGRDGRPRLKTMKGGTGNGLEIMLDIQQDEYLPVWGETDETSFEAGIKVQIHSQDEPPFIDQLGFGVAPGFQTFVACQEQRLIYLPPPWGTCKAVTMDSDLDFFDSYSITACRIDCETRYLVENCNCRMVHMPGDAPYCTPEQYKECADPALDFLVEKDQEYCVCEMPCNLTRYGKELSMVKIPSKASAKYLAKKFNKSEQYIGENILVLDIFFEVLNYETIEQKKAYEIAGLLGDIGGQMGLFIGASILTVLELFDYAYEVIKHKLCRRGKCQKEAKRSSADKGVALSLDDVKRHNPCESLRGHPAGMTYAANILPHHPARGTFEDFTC
Description: Knottin Kv 1.3 and ASIC1a blockers expressed in the KnotBody format (see examples 6 and 7) were tested for their ability to inhibit the function of the ion channel targets. The effect of these KnotBodies on cells expressing the human Kv 1.3 (huKv1.3) or human ASIC1a channels was assessed using QPatch automated whole-cell patch-clamp electrophysiology (Sophion).
To functionally assess the ASIC1a KnotBodies, HEK293 cells stably expressing huASIC1a (Sophion) were analysed using a QPatch electrophysiology assay in the presence or absence of the KnotBody fusions (using KB_A12 as a recipient and replacing the original EETI-II donor as shown in Table 8). The “parental” KB_A12 with the EETI-II donor was used as a negative control. Internal and external physiological solutions were freshly prepared prior to the assay. The extracellular solution contained 145 mM NaCl, 4 mM KCl, 2 mM CaCl2, 1 mM MgCl2, 10 mM HEPES and 10 mM glucose; the pH was adjusted to 7.4 with NaOH (for control, resting-state pH) or 6.0 with MES (for acidic, activating-state pH); the osmolarity was ~ 305 mOsm/L. The intracellular solution contained: CsF (140 mM), HEPES (10 mM), NaCl (10 mM) and EGTA/CsOH (1 mM/5 mM); the pH was adjusted to 7.3 with CsOH; osmolarity was ~ 320 mOsm/L.
Throughout ASIC 1a recordings the recording cell membrane voltage was clamped at -60 mV. ASIC1a baseline control currents were elicited by applying external solution at activating pH 6.0 for 3000 ms. This activating pH application was repeated three further times, giving four baseline control ASIC1a currents. The recording cells were then pre-incubated with KnotBody diluted in external solution at pH 7.4 for 15-20 minutes. Following this KnotBody pre-incubation the same concentration of KnotBody in external solution at activating pH 6.0 was applied to the cell recording.
At the end of each KnotBody incubation and subsequent ASIC1a current activation, a full blocking concentration (300 nM) of the ASIC1a knottin inhibitor PcTx1 (positive control) was perfused onto the cell recording and a final activating pH 6.0 external solution was applied. The percentage remaining signal between activating pH 6.0 baseline (i.e. pre-KnotBody) and post-KnotBody incubation was determined.

human Kv1.3 (huKv1.3) = target: T2, human Kv1.3 (huKv1.3) (Homo sapiens, UniProt P22001); experiment: QPatch automated patch-clamp, CHO cells stably expressing human Kv1.3 (Examples 19-21)
T2 construct: host or cells: CHO
Description: The effect of these KnotBodies on cells expressing human Kv1.3 (huKv1.3) channel was assessed using the QPatch automated patch-clamp platform (Sophion, Ballerup, Denmark). For the testing of Kv1.3 ion channel currents, CHO cells stably expressing human Kv1.3 (GenBank accession number NM_002232.2; cell line catalogue number CT6133, Charles River Discovery, Cleveland, USA) were subjected to a QPatch electrophysiology assay in the presence or absence of the KnotBody fusions or the antibody isotypes (negative controls). Internal and external physiological solutions were freshly prepared prior to the assay. The extracellular solution contained 145 mM NaCl, 4 mM KC1, 2 mM CaC12, 1 mM MgC12, 10 mM HEPES and 10 mM glucose; the pH was adjusted to 7.4 with NaOH; the osmolarity was ~ 305 mOsm/L. The intracellular solution contained: KF (120 mM), KC1 (20 mM), HEPES (10 mM) EGTA (10 mM); the pH was adjusted to 7.2 with KOH; osmolarity was ~ 300 mOsm/L.
(§1) A series of depolarising voltage (channel activating) pulses were used to monitor the channel currents upon adding control (extracellular solution) to define a control baseline of current activity. To these measured control currents four, ascending concentrations of KnotBodies (including KB_A12_ShK and KB_A12_KTX as previously described in Example 8) or parental antibody isotypes (control molecules) were applied to the external bathing solution. KnotBodies KB_A12 and KB_A07 (EETI-II fusions) were used as isotype controls for the testing. From a holding voltage of -80 mV a depolarising, activating voltage pulses of +30 mV were applied for 300 ms, every 10 seconds. The elicited, maximum outward current values measured during the activating step for each solution exchange period, averaged (n = 3 - 6 for each concentration applied) and plotted as concentration-response curves (see FIG. 32). From these concentration-response curves IC50 values were calculated.
(§2) For the testing of Kv1.1 and Kv1.3, CHO-S expressing huKv1.1 (described above) or CHO cells stably expressing huKv1.3 (Charles River Lab) were analysed using the QPatch electrophysiology assay in the presence or absence of the KnotBody fusions. Internal and external physiological solutions were freshly prepared prior to the assay. The extracellular solution contained 145 mM NaCl, 4 mM KC1, 2 mM CaC12, 1 mM MgC12, 10 mM HEPES and 10 mM glucose; the pH was adjusted to 7.4 with NaOH; the osmolarity was ~ 305 mOsm/L. The intracellular solution contained: KF (120 mM), KC1 (20 mM), HEPES (10 mM) EGTA (10 mM); the pH was adjusted to 7.2 with KOH; osmolarity was ~ 300 mOsm/L.
as §1, with “(including previously described” for “(including”, “KB_A12_KTX” for “KB_A12_KTX as previously”, “[…]” for “+30 mV”, “33).” for “32).”, “calculated (see Table E20).” for “calculated.”
(§3) For the testing of Kv1.1 and Kv1.3, CHO-S expressing huKv1.1 (see Example 20 and below) or CHO cells stably expressing huKv1.3 (Charles River Lab) were analysed using the QPatch electrophysiology assay in the presence or absence of the KnotBody fusions - see details in Examples 19 and 20.

human Kv1.1 (huKv1.1) = target: T3, human Kv1.1 (huKv1.1) (Homo sapiens, UniProt Q09470); experiment: QPatch automated patch-clamp, CHO-S cells expressing huKv1.1 (Examples 20-21); settings: four-point curves of FIG. 33, Table E20
T3 construct: expressed in transfected cells; host or cells: Freestyle CHO-S
Description: 1. The effect of these KnotBodies on cells expressing human Kv1.1 (huKv1.1) and Kv1.3 (huKv1.3) channels was assessed using QPatch automated patch-clamp platform (Sophion).
To generate huKv1.1 expressing cells, Freestyle CHO-S cells (Cat. no. R80007, Life Technologies, California, USA) were transfected with pINT50-Tr plasmid encoding huKv1.1 gene using the MaxCyte STX (MaxCyte) transfection system. In pINT50-Tr plasmid, huKv1.1 gene is under the control of a CMV promoter. 64 µg of the plasmid DNA were added to 400 µl of Freestyle CHO-S cells (at a density of 1 × 10^8 cells/ml) in Electroporation Buffer (GE Healthcare Life Sciences, Cat. no. EPB1) in an OC-400 processing assembly (MaxCyte). Following electroporation, the cells were transferred to a well of a 24-well plate containing 200 U/ml DNAse I (Sigma, D4263) and incubated for 20 minutes at 37° C. and 5% CO2. The cells were then transferred into a 100 ml shaker flask containing 20 ml of CD Opticho Media (Thermo Fisher Scientific, Cat.No 12681-011,) supplemented with 8 mM L-Glut (Thermo Fisher Scientific, cat. no. 25030-024). The cells were incubated for 24 hours at 37° C. and 5% CO2 (and 75% humidity and shaking at 800 rpm) prior to testing using automated patch clamp electrophysiology.
as §2
as §1, with “(including previously described” for “(including”, “KB_A12_KTX” for “KB_A12_KTX as previously”, “[…]” for “+30 mV”, “33).” for “32).”, “calculated (see Table E20).” for “calculated.”
as §3
In addition to the CHO-S transiently expressing huKv1.1 (described in Example 20), CHO-S cells with poly-clonal stable expression of huKv1.1 cells were also made and used in the QPatch electrophysiology assay. To generate the polyclonal stable huKv1.1 cells from the transiently expressing cells described in Example 20, after a 24 hour incubation period the selection antibiotic Puromycin (catalogue no. A1 1138-03, Life Technologies, California, USA) was added to culture media. Then, for the first 14 days puromycin was at 10 µg ml-1 media; at days 15-28 puromycin was at 20 µg ml-1 media. Cell cultures were seeded at 2.5 x 10^5 cells ml^-1 into fresh culture media and puromycin twice per week through this selection growth period. […]

T2 sequence (P22001 whole entry): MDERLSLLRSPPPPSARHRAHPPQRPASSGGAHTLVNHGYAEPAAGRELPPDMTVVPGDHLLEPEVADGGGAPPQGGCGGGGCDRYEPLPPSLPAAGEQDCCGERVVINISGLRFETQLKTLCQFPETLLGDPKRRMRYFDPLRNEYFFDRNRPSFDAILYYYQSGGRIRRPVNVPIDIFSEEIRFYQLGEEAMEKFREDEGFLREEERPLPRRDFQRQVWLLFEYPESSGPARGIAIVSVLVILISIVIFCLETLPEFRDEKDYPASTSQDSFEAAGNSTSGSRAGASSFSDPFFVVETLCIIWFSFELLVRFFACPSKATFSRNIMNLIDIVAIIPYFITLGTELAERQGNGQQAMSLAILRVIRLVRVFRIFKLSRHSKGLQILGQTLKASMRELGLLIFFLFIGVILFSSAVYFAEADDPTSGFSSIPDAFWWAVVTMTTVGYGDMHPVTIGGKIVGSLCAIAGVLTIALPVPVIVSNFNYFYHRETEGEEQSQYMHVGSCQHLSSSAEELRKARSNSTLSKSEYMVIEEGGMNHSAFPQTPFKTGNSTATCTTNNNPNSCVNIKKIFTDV
T3 sequence (Q09470 whole entry): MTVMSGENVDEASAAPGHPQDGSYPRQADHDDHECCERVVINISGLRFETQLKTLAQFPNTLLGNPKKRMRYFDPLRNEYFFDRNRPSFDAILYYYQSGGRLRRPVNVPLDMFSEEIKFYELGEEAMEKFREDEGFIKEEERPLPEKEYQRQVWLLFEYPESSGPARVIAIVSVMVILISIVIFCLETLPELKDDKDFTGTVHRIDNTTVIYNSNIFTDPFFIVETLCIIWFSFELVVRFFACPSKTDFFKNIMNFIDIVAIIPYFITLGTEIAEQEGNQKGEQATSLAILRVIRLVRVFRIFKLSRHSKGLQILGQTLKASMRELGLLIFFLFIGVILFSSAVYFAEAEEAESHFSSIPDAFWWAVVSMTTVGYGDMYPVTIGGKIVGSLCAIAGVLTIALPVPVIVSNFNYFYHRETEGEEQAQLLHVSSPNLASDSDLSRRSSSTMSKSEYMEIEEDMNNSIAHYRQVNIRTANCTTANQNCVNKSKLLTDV

B1: KB_A12_PcTx1: PcTx1 in VL CDR2 of KB_A12 (antibody)
VH: EVQLVESGGGLVRPGGSLRLSCAASGFTFSSYAMSWVRQAPGKGLEWVSAISGSGGSTYYADSVKGRFTISRDNTKNSLYLQMTSLRADDTAFYYCVKDFGPGYGTGWFDYWGPGTLVTVSS
VL: QSVLTQPPSVSEAPRQRVTITCSGSSSNIGNNAVNWYQQLPGKAPKLLIYAAGREDCIPKWKGCVNRHGDCCEGLECWKRRRSFEVCVPKTPKTANSGVSDRFSAAKSGTSASLAINGLRSEDEADYYCAAWDDSLNGYVFGTGTKLTVLG
huASIC1a
  % current remaining: 4.8%

B2: KB_A07_PcTx1: PcTx1 in VL CDR2 of KB_A07 (antibody, V domains shown)
VH: B1 VH
VL: DIQMTQSPSSLSASVGDRVTITCRASQSISSYLNWYQQKPGKAPKLLIYAAGVEDCIPKWKGCVNRHGDCCEGLECWKRRRSFEVCVPKTPKTSRSGVPSRFSGSGSGTDFTLTISSLQPEDFATYYCQQGASPPYTFGQGTKVEIKR
huASIC1a
  % current remaining: 4.8%
huASIC1a; listed as KB A07 PcTx1
  % current remaining: 6.2%

B3: KB_A12_Odk2 short: truncated OdK2 in VL CDR2 of KB_A12, IgG (antibody, V domains shown)
VH: B1 VH
VL: QSVLTQPPSVSEAPRQRVTITCSGSSSNIGNNAVNWYQQLPGKAPKLLIYAAGRVKCRGSPQCIQPCKDAGMRFGKCMNGKCHCTPKANSGVSDRFSAAKSGTSASLAINGLRSEDEADYYCAAWDDSLNGYVFGTGTKLTVLG
Human Kv1.3 (huKv1.3); Kv1.1 IC50 over Kv1.3 IC50, Table E20
  Fold difference: 8
Human Kv1.3 (huKv1.3); four-point curves of FIG. 33, Table E20, read-out: Kv1.3 IC50
  IC50: 0.049 µM
Human Kv1.3 (huKv1.3); huKv1.3, four-point curves of FIG. 32, Table E19, read-out: IC50
  IC50: 0.064 µM
Human Kv1.1 (huKv1.1)
  IC50: 0.38 µM

B4: KB_A12_Mba-2: Mambalgin-2 in VL CDR2 of KB_A12 (antibody)
VH: B1 VH
VL: QSVLTQPPSVSEAPRQRVTITCSGSSSNIGNNAVNWYQQLPGKAPKLLIYAAGRLKCFQHGKVVTCHRDMKFCYHNTGMPFRNLKLILQGCSSSCSETENNKCCSTDRCNKANSGVSDRFSAAKSGTSASLAINGLRSEDEADYYCAAWDDSLNGYVFGTGTKLTVLGQP
huASIC1a
  % current remaining: same level of current as the KB_A12 negative control
huASIC1a; listed as KB A12 Mba-2
  % current remaining: 72.4%

B5: KB_A12_Mba-1: Mambalgin-1 in VL CDR2 of KB_A12 (antibody)
VH: B1 VH
VL: B4 VL with F58Y
huASIC1a
  % current remaining: same level of current as the KB_A12 negative control
huASIC1a; listed as KB A12 Mba-1
  % current remaining: 69.2%
